Consider 2 proteins from article PMC11020753, “Contribution of amino acids in the active site of dipeptidyl peptidase 4 to the catalytic action of the enzyme” (PLOS ONE, 2024).

Numbering of substitutions follows the chain as printed. Numbers in names are those of the source.

Substrate in this series: CC(C)C[C@H](NC(=O)[C@@H]1CCCN1C(=O)[C@@H](N)C(C)C)C(=O)O
As to the kind of experiment: purified protein, by the assay type. The settings on record: T = 30 °C, 100 mM Tris-HCl, pH 7.6, substrate concentration 25 μM.

The mark [1] stands for this setting: other: wild type DP4, cleavage of diprotin B as substrate.
[2] abbreviates: other: R125A, cleavage of diprotin B as substrate.

B1: wild type DP4 (Homo sapiens) (protein)
chain: ADSRKTYTLTDYLKNTYRLKLYSLRWISDHEYLYKQENNILVFNAEYGNSSVFLENSTFDEFGHSINDYSISPDGQFILLEYNYVKQWRHSYTASYDIYDLNKRQLITEERIPNNTQWVTWSPVGHKLAYVWNNDIYVKIEPNLPSYRITWTGKEDIIYNGITDWVYEEEVFSAYSALWWSPNGTFLAYAQFNDTEVPLIEYSFYSDESLQYPKTVRVPYPKAGAVNPTVKFFVVNTDSLSSVTNATSIQITAPASMLIGDHYLCDVTWATQERISLQWLRRIQNYSVMDICDYDESSGRWNCLVARQHIEMSTTGWVGRFRPSEPHFTLDGNSFYKIISNEEGYRHICYFQIDKKDCTFITKGTWEVIGIEALTSDYLYYISNEYKGMPGGRNLYKIQLSDYTKVTCLSCELNPERCQYYSVSFSKEAKYYQLRCSGPGLPLYTLHSSVNDKGLRVLEDNSALDKMLQNVQMPSKKLDFIILNETKFWYQMILPPHFDKSKKYPLLLDVYAGPCSQKADTVFRLNWATYLASTENIIVASFDGRGSGYQGDKIMHAINRRLGTFEVEDQIEAARQFSKMGFVDNKRIAIWGWSYGGYVTSMVLGSGSGVFKCGIAVAPVSRWEYYDSVYTERYMGLPTPEDNLDHYRNSTVMSRAENFKQVEYLLIHGTADDNVHFQQSAQISKALVDVGVDFQAMWYTDEDHGIASSTAHQHIYTHMSHFIKQCFSLP
Consider B1, for which, under setting [1], the Km entry was “(7.2 ± 0.58) · 10^−6 M”, the kcat came to 7 s⁻¹ and the kcat/Km is 970000 M⁻¹ s⁻¹.

B2: DP4 variant R125A (Homo sapiens; R125A) (protein)
chain: B1 chain with R89A
With B2, under setting [2], the Km entry is “(3.7 ± 0.26) · 10^−4 M”, the kcat is 7.7 s⁻¹ and the kcat/Km was 21000 M⁻¹ s⁻¹.

For orientation: kcat means the maximal rate divided by the concentration of active sites. Usually kcat/Km stands for the second-order rate constant that governs catalysis at low substrate concentration.
